Data as given in patent US20180142226.
Residue numbers refer to the chain shown, from its start. Names may count otherwise.

T1: PFPQPQQPF peptide
T1 chain: PFPQPQQPF

T2: PFPQPQLPY peptide
T2 chain: PFPQPQLPY

T3: 33mer peptide of α-gliadin
T3 chain: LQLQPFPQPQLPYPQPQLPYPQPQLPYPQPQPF

T4: 26mer peptide of γ-gliadin
T4 chain: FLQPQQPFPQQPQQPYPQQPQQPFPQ

B1: Kuma021 (protein)
chain: AAPTAYTPLDVAQAYQFPEGLDGQGQCIAIIELGGGYDEASLAQYFASLGVPAPQVVSVSVDGASNQPTGDPKGPDGEVELDIEVAGALAPGAKFAVYFAPDTTAGFLDAITTAIHDPTLKPSVVSISWSGPEDSWTSAAIAAMNRAFLDAAALGVTVLAAAGDSGSTSGEQDGLYHVHFPAASPYVLACGGTRLVASGGRIAQETVWNQGPDGGATGGGVSRIFPLPAWQEHANVPPSANPGASSGRGVPDLAGNADPQTGYEVVIDGEATVTGGTSAVAPLFAALVARINQKLGKAVGYLNPTLYQLPADVFHDITEGNNDIANRAQIYQAGPGWDPCTGLGSPIGVRLLQALLPSASQPQP
B2: Kuma031 (protein)
chain: B1 chain with K73E, E80T, S165Q
B3: Kuma041 (protein)
chain: B1 chain with E80T, S130A, S169G, H179F
B4: Kuma042 (protein)
chain: B1 chain with E80T, S130A, S169G, H179F
B5: Kuma062 (protein)
chain: B1 chain with K73E, E80T, G131M, S165Q
B6: Kuma032 (protein)
chain: B1 chain with K73E, E80T, S165Q
B7: Kuma010 (protein)
chain: AAPTAYTPLDVAQAYQFPEGLDGQGQCIAIIELGGGYDEASLAQYFASLGVPAPQVVSVSVDGASNQPTGDPKGPDGEVELDIEVAGALAPGAKFAVYFAPDTTAGFLDAITTAIHDPTLKPSVVSISWSGPEDSWTSAAIAAMNRAFLDAAALGVTVLAAAGDSGSTGGEQDGLYHVHFPAASPYVLACGGTRLVASGGRIAQETVWNDGPDGGATGGGVSRIFPLPAWQEHANVPPSANPGASSGRGVPDLAGNADPATGYEVVIDGEATVIGGTSAVAPLFAALVARINQKLGKAVGYLNPTLYQLPADVFHDITEGNNDIANRAQIYQAGPGWDPCTGLGSPIGVRLLQALLPSASQPQGSTENLYFQSGALEHHHHHH
B8: Kuma011-G358T (protein)
chain: AAPTAYTPLDVAQAYQFPEGLDGQGQCIAIIELGGGYDEASLAQYFASLGVPAPQVVSVSVDGASNQPTGDPKGPDGEVELDIEVAGALAPGAKFAVYFAPDTTAGFLDAITTAIHDPTLKPSVVSISWSGPEDSWTSAAIAAMNRAFLDAAALGVTVLAAAGDSGSTTGEQDGLYHVHFPAASPYVLACGGTRLVASGGRIAQETVWNDGPDGGATGGGVSRIFPLPAWQEHANVPPSANPGASSGRGVPDLAGNADPATGYEVVIDGEATVIGGTSAVAPLFAALVARINQKLGKAVGYLNPTLYQLPADVFHDITEGNNDIANRAQIYQAGPGWDPCTGLGSPIGVRLLQALLPSASQPQ
B9: Kuma011-D399Q (protein)
chain: B8 chain with T169G, D210Q
B10: Kuma011-I463A (protein)
chain: B8 chain with T169G, I274A
B11: Kuma011-A449E (protein)
chain: B8 chain with T169G, A260E
B12: Kuma011-H368F (protein)
chain: B8 chain with T169G, H179F
B13: Kuma011-T406S (protein)
chain: B8 chain with T169G, T217S
B14: Kuma011-D402Q (protein)
chain: B8 chain with T169G, D213Q
B15: Kuma011-I463M (protein)
chain: B8 chain with T169G, I274M
B16: Kuma011-D402S (protein)
chain: B8 chain with T169G, D213S
B17: Kuma010/011 A449N (protein)
chain: B8 chain with T169G, A260N
B18: Kuma011-H368Q (protein)
chain: B8 chain with T169G, H179Q
B19: Kuma011-I463L (protein)
chain: B8 chain with T169G, I274L
B20: Kuma011-T461R (protein)
chain: B8 chain with T169G, T272R
B21: Kuma020 (protein)
chain: AAPTAYTPLDVAQAYQFPEGLDGQGQCIAIIELGGGYDEASLAQYFASLGVPAPQVVSVSVDGASNQPTGDPKGPDGEVELDIEVAGALAPGAKFAVYFAPDTTAGFLDAITTAIHDPTLKPSVVSISWSGPEDSWTSAAIAAMNRAFLDAAALGVTVLAAAGDSGSTSGEQDGLYHVHFPAASPYVLACGGTRLVASGGRIAQETVWNDGPDGGATGGGVSRIFPLPAWQEHANVPPSANPGASSGRGVPDLAGNADPATGYEVVIDGEATVTGGTSAVAPLFAALVARINQKLGKAVGYLNPTLYQLPADVFHDITEGNNDIANRAQIYQAGPGWDPCTGLGSPIGVRLLQALLPSASQPQPGSTENLYFQSGALEHHHHHH
B22: Kuma070 (protein)
chain: B21 chain with E80T, S130A, G131M, S169G, H179F, D210Q, A260Q

Legend:
PFPQPQQPF peptide = biological target: T1, PFPQPQQPF peptide
PFPQPQLPY peptide = biological target: T2, PFPQPQLPY peptide
[1] = biological target: T3, 33mer peptide of α-gliadin
[2] = biological target: T4, 26mer peptide of γ-gliadin

Row | Protein | % Improvement on PFPQPQQPF (SEQ ID NO: 68) (PFPQPQQPF peptide) [%] | % Improvement on PFPQPQLPY (SEQ ID NO: 67) (PFPQPQLPY peptide) [%] | further results
1 | B1 | – | – | Activity Improvement over Background (Kuma020) (peptides containing PQL): 1-2x (PQL); Activity Improvement over Background (Kuma020) (peptides containing PQQ): 1.2-2.5x (PQQ)
2 | B2 | – | – | Activity Improvement over Background (Kuma030) (peptides containing PQL): No change (PQL);
3 | B3 | – | – | Activity Improvement over Background (Kuma040) (peptides containing PQL): 1.0-1.2x (PQL)
4 | B4 | – | – | Activity Improvement over Background (Kuma041) (peptides containing PQL): 1.2-1.5x (PQL); concentration of peptide breakdown product PFPQPQ over time (DQ2.5-glia-α1a): Kuma042 even shows a slight increase in activity against this substrate compared to Kuma040
5 | B5 | – | – | detection of full-length peptide and of the PFPQPQ breakdown product over time (DQ2.5-glia-ω1): Kuma062 demonstrates a higher level of enzymatic activity than Kuma030 or Kuma040
6 | B6 | – | – | Activity Improvement over Background (Kuma031) (peptides containing PQL): No change (PQL);; concentration of peptide breakdown product PFPQPQ over time (DQ2.5-glia-α1a): Kuma032 and Kuma042 demonstrate comparable activity as Kuma030 and Kuma040
7 | B7 | – | – | Kcat (DQ2.5-glia-ω1): 1.2 s⁻¹; Km (DQ2.5-glia-ω1): 16.4 mM; Vmax (DQ2.5-glia-ω1): 1.22e-07 M/s; kcat/Km (DQ2.5-glia-ω1): 74 M⁻¹ s⁻¹; Kcat (DQ2.5-glia-α1a): 3.7 s⁻¹; Km (DQ2.5-glia-α1a): 4.6 mM; Vmax (DQ2.5-glia-α1a): 3.7e-07 M/s; kcat/Km (DQ2.5-glia-α1a): 819 M⁻¹ s⁻¹
8 | B8 | 128 | 283 | –
9 | B9 | 208 | 149 | –
10 | B10 | 234 | 51 | –
11 | B11 | 208 | 149 | –
12 | B12 | 104 | 334 | –
13 | B13 | 101 | 84 | –
14 | B14 | 111 | 164 | –
15 | B15 | 53 | 123 | –
16 | B16 | 108 | 94 | –
17 | B17 | 118 | 119 | –
18 | B18 | 195 | 199 | –
19 | B19 | 22 | 124 | –
20 | B20 | 86 | 120 | –
21 | B21 | – | – | appearance of peptide breakdown products over time [1]: Kuma020 demonstrated a moderate amount of activity on both peptides; Activity Improvement over Background (Kuma010) (peptides containing PQL): 7-19x (PQL); Activity Improvement over Background (Kuma010) (peptides containing PQQ): 15-35x (PQQ); appearance of peptide breakdown products over time [2]: Kuma020 demonstrated a moderate amount of activity on both peptides
22 | B22 | – | – | Activity Improvement over Background (Kuma040) (DQ2.5-glia-ω1): 2-4x (PQQ); Activity Improvement over Background (Kuma040) (DQ2.5-glia-α1a): 2-3x (PQL)
